Measurements published in article PMC5636753, “Structural basis for DAXX interaction with ATRX” (Protein & Cell, 2017).

B1: ATRX_(1,253–1,326) [not stated] / DAXX helical bundle (DHB) domain, DAXX_(55–144) [not stated] (parent complex)
chain 1: SVPVTVDDDDDDNDPENRIAKKMLLEEIKANLSSDEDGSSDDEPEEGKKRTGKQNEENPGDEEAKNQVNSESDS
chain 2: GKKCYKLENEKLFEEFLELCKMQTADHPEVVPFLYNRQQRAHSLFLASAEFCNILSRVLSRARSRPAKLYVYINELCTVLKAHSAKKKLN
B2: DAXX-binding motif of ATRX, ATRX_(1,260–1,289) [not stated] / DAXX helical bundle (DHB) domain, DAXX_(55–144) [not stated] (parent complex)
chain 1: DDDDDNDPENRIAKKMLLEEIKANLSSDED
chain 2: B1 chain 2

Variants of: B1
Assay: ITC

| Variant | Kd |
| --- | --- |
| chain 1 I28A | 0.4 µM |
| chain 1 I28Q | 7.35 µM |
| chain 1 A20R | 1.04 µM |
| chain 1 L25R | 0.97 µM |

The remaining lines, values ahead:

| Kd | Variant |
| --- | --- |
| 8.33 µM | chain 1 L24A |
| 43.3 µM | chain 1 L24Q |
| 73.5 µM | chain 1 L24R |
| 34.8 µM | chain 1 I28R |
| 12 µM | chain 1 L24A, chain 1 I28A |

Variants of: B2
Assay: ITC

| Kd | Variant |
| --- | --- |
| 0.85 µM | chain 1 D1A, chain 1 D2A, chain 1 D3A, chain 1 D4A, chain 1 D5A |
| 1.75 µM | chain 1 D7A, chain 1 E9A |
